T1: CARM1 fused to Gal4AD (pGAD10.CARM1) (mouse, UniProt Q4AE70 3-651 (rat entry))
T1 construct: Yeast two-hybrid prey; also called CARM1-AD hybrid protein; CARM1(3-608)
T1 sequence: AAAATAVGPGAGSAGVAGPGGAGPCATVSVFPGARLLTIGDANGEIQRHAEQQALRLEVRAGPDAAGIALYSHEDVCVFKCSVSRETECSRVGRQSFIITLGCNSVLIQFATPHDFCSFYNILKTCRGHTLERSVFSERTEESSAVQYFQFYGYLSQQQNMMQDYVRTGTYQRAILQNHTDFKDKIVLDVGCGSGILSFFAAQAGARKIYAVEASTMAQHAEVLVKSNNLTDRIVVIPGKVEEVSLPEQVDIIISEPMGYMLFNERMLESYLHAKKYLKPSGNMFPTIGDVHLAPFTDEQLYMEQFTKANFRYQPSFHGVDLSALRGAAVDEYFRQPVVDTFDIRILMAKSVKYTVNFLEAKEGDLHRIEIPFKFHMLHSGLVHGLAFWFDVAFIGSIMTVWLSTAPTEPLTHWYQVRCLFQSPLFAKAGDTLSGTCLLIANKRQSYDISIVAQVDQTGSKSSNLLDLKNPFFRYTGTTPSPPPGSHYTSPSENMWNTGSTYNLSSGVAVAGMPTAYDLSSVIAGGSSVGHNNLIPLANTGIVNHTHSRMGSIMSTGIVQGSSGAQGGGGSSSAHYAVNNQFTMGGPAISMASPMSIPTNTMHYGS

B1: GST-CARM1 (enzyme)
chain: AAAATAVGPGAGSAGVAGPGGAGPCATVSVFPGARLLTIGDANGEIQRHAEQQALRLEVRAGPDAAGIALYSHEDVCVFKCSVSRETECSRVGRQSFIITLGCNSVLIQFATPHDFCSFYNILKTCRGHTLERSVFSERTEESSAVQYFQFYGYLSQQQNMMQDYVRTGTYQRAILQNHTDFKDKIVLDVGCGSGILSFFAAQAGARKIYAVEASTMAQHAEVLVKSNNLTDRIVVIPGKVEEVSLPEQVDIIISEPMGYMLFNERMLESYLHAKKYLKPSGNMFPTIGDVHLAPFTDEQLYMEQFTKANFRYQPSFHGVDLSALRGAAVDEYFRQPVVDTFDIRILMAKSVKYTVNFLEAKEGDLHRIEIPFKFHMLHSGLVHGLAFWFDVAFIGSIMTVWLSTAPTEPLTHWYQVRCLFQSPLFAKAGDTLSGTCLLIANKRQSYDISIVAQVDQTGSKSSNLLDLKNPFFRYTGTTPSPPPGSHYTSPSENMWNTGSTYNLSSGVAVAGMPTAYDLSSVIAGGSSVGHNNLIPLANTGIVNHTHSRMGSIMSTGIVQGSSGAQGGGGSSSAHYAVNNQFTMGGPAISMASPMSIPTNTMHYGS
notes: also called GST fusion protein of CARM1; glutathione S-transferase-CARM1; not shown: glutathione S-transferase (GST) as encoded by vector pGEX-4T1 (Pharmacia)

How the values were obtained:
[1] = target: T1, CARM1 fused to Gal4AD (pGAD10.CARM1); assay: yeast two-hybrid, β-galactosidase activity
Experimental: (§1) Sub-fragments of the GRIP1 C-terminal domain (GRIP lc), fused with the Gal4 DBD, were tested in the yeast two-hybrid system as described previously (Ding, X. F. et al. (1998) Mol. Endocrinol. 12:302) for binding to CARM1 or to α-actinin, fused to Gal4AD. β-galactosidase (β-gal) activity indicates interaction between the two hybrid proteins.

[2] = target: T2, GRIP1 amino acids 5-765, translated in vitro (UniProt Q61026 5-765); assay: GST pull-down on glutathione agarose beads, labeled in vitro translated fragment, SDS-PAGE
T2 construct: range 5-765; also called GRIP1 (5-765); not shown: translation start and HA tag encoded by pSG5.HA
Experimental: (§2) The binding of GRIP1c to CARM1 observed in the yeast two-hybrid system was confirmed in vitro, by incubating glutathione S-transferase (GST) fusion proteins attached to glutathione agarose beads with labeled proteins or protein fragments translated in vitro. […] Conversely, GST-GRIP1c bound CARM1 and the VLD to AAA mutant of CARM1 (FIG. 3B). GST-CARM1 not only bound GRIP1 but also the other two members of the p160 coactivator family, SRC-1a and ACTR (FIG. 3A). […] GST fusion proteins of CARM1 or the indicated GRIP1 fragments produced in E. coli strain BL21 (Stratagene), were bound to glutathione-agarose beads and incubated with labeled full length CARM1 or p160 coactivators or GRIP1 fragments translated in vitro from vector pSG5.HA-CARM1, pSG5.HA-GRIP1, pSG5.HA-SRC-1a (Chen, D. et al. 1999), or pCMX.ACTR (Chen et al. 1997); bound labeled proteins were eluted and analyzed by SDS polyacrylamide gel electrophoresis as described previously (Hong et al. 1996). A mutant form of CARM1 with the triple amino acid substitution (VLD changed to AAA) shown in FIG. 1 still retains the ability to bind to the C-terminal fragment of GRIP1.

[3] = target: T1, CARM1 fused to Gal4AD (pGAD10.CARM1); assay: yeast two-hybrid, β-galactosidase activity (figure legend)
Experimental: as §1

GST-CARM1 = target: B1; assay: GST pull-down on glutathione agarose beads, labeled in vitro translated fragment, SDS-PAGE
Experimental: as §2

T2 sequence (Q61026 5-765): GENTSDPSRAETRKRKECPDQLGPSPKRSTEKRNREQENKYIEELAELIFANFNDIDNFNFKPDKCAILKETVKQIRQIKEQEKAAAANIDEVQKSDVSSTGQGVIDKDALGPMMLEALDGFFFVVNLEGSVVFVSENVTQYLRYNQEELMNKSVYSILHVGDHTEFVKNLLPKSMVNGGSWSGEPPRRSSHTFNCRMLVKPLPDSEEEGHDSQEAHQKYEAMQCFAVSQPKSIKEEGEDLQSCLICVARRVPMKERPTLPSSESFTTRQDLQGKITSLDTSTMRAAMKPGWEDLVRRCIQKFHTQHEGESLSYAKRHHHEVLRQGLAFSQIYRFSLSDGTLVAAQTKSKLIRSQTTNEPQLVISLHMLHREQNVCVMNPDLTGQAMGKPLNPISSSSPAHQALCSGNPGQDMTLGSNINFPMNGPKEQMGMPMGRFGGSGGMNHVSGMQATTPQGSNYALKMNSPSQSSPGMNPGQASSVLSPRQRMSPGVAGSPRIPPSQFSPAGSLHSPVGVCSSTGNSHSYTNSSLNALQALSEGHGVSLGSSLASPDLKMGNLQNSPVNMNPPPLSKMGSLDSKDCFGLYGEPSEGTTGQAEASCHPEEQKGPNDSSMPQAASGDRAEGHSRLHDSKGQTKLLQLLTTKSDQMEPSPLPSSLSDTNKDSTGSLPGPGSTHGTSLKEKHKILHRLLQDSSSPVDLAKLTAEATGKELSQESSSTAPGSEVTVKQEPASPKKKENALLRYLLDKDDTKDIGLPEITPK

Binder	binding result [1]	further results
Gal4 DBD-GRIP1 fragment 1211-1350 (other, UniProt P04386 1-147, looked up) MKLLSSIEQACDICRLKKLKCSKEKPKCAKCLKNNWECRYSPKTKRSPLTRAHLTEVESRLERLEQLFLLIFPREDLDMILKMDSLQDIKALLTGLFVQDNVNKDAVTDRLASVETDMPLTLRQHRISATSSSEESSNKGQRQLTVSSSVSNVNLTLRPGVPTQAPINAQMLAQRQREILNQHLRQRQMQQQVQQRTLMMRGQGLNVTPSMVAPAGLPAAMSNPRIPQANAQQFPFPPNYGISQQPDPGFTGATTPQSPLMSPRMAHTQSPMMQQSQANPAYQPTSD	binds	
Gal4 DBD-GRIP1c C-terminal fragment starting at amino acid 1306 (GRIP1c bisected between 1305 and 1306) (other, UniProt P04386 1-147, looked up) MKLLSSIEQACDICRLKKLKCSKEKPKCAKCLKNNWECRYSPKTKRSPLTRAHLTEVESRLERLEQLFLLIFPREDLDMILKMDSLQDIKALLTGLFVQDNVNKDAVTDRLASVETDMPLTLRQHRISATSSSEESSNKGQRQLTVSSQQPDPGFTGATTPQSPLMSPRMAHTQSPMMQQSQANPAYQPTSDMNGWAQGSMGGNSMFSQQSPPHFGQQANTSMYSNNMNISVSMATNTGGLSSMNQMTGQMSMTSVTSVPTSGLPSMGPEQVNDPALRGGNLFPNQLPGMDMIKQEGDASRKYC	no binding	
B1		binding result [2]: no binding
Gal4 DBD-GRIP1c N-terminal fragment ending at amino acid 1305 (GRIP1c bisected between 1305 and 1306) (other, UniProt P04386 1-147, looked up) MKLLSSIEQACDICRLKKLKCSKEKPKCAKCLKNNWECRYSPKTKRSPLTRAHLTEVESRLERLEQLFLLIFPREDLDMILKMDSLQDIKALLTGLFVQDNVNKDAVTDRLASVETDMPLTLRQHRISATSSSEESSNKGQRQLTVSSSIMLEQKPPVFPQQYASQAQMAQGGYNPMQDPNFHTMGQRPNYTTLRMQPRPGLRPTGIVQNQPNQLRLQLQHRLQAQQNRQPLMNQISSVSNVNLTLRPGVPTQAPINAQMLAQRQREILNQHLRQRQMQQQVQQRTLMMRGQGLNVTPSMVAPAGLPAAMSNPRIPQANAQQFPFPPNYGI	no binding	
Gal4 DBD-GRIP1 amino acids 1121-1210 (N-terminal fragment of GRIP1c bisected between 1210 and 1211) (other, UniProt P04386 1-147, looked up, also called the N-terminal fragment) MKLLSSIEQACDICRLKKLKCSKEKPKCAKCLKNNWECRYSPKTKRSPLTRAHLTEVESRLERLEQLFLLIFPREDLDMILKMDSLQDIKALLTGLFVQDNVNKDAVTDRLASVETDMPLTLRQHRISATSSSEESSNKGQRQLTVSESSIMLEQKPPVFPQQYASQAQMAQGGYNPMQDPNFHTMGQRPNYTTLRMQPRPGLRPTGIVQNQPNQLRLQLQHRLQAQQNRQPLMNQI	no binding	
Gal4 DBD-GRIP1 1211-1462 (C-terminal fragment of GRIP1c bisected between 1210 and 1211) (other, UniProt P04386 1-147, looked up, also called the C-terminal fragment) MKLLSSIEQACDICRLKKLKCSKEKPKCAKCLKNNWECRYSPKTKRSPLTRAHLTEVESRLERLEQLFLLIFPREDLDMILKMDSLQDIKALLTGLFVQDNVNKDAVTDRLASVETDMPLTLRQHRISATSSSEESSNKGQRQLTVSSSVSNVNLTLRPGVPTQAPINAQMLAQRQREILNQHLRQRQMQQQVQQRTLMMRGQGLNVTPSMVAPAGLPAAMSNPRIPQANAQQFPFPPNYGISQQPDPGFTGATTPQSPLMSPRMAHTQSPMMQQSQANPAYQPTSDMNGWAQGSMGGNSMFSQQSPPHFGQQANTSMYSNNMNISVSMATNTGGLSSMNQMTGQMSMTSVTSVPTSGLPSMGPEQVNDPALRGGNLFPNQLPGMDMIKQEGDASRKYC	binds	
Gal4 DBD-GRIP1c (GRIP1 1122-1462) (other, UniProt P04386 1-147, looked up, One entry covers both the yeast bait (pGBT9) and the mammalian vector (pM) fusion; also called pGBT9.GRIP1c; pM.GRIP1c) MKLLSSIEQACDICRLKKLKCSKEKPKCAKCLKNNWECRYSPKTKRSPLTRAHLTEVESRLERLEQLFLLIFPREDLDMILKMDSLQDIKALLTGLFVQDNVNKDAVTDRLASVETDMPLTLRQHRISATSSSEESSNKGQRQLTVSSSIMLEQKPPVFPQQYASQAQMAQGGYNPMQDPNFHTMGQRPNYTTLRMQPRPGLRPTGIVQNQPNQLRLQLQHRLQAQQNRQPLMNQISSVSNVNLTLRPGVPTQAPINAQMLAQRQREILNQHLRQRQMQQQVQQRTLMMRGQGLNVTPSMVAPAGLPAAMSNPRIPQANAQQFPFPPNYGISQQPDPGFTGATTPQSPLMSPRMAHTQSPMMQQSQANPAYQPTSDMNGWAQGSMGGNSMFSQQSPPHFGQQANTSMYSNNMNISVSMATNTGGLSSMNQMTGQMSMTSVTSVPTSGLPSMGPEQVNDPALRGGNLFPNQLPGMDMIKQEGDASRKYC		binding result [3]: binds
GRIP1 amino acids 730-1121, translated in vitro (other, UniProt Q61026 730-1121, looked up, range 730-1121; also called GRIP1 (730-1121); not shown: translation start and HA tag encoded by pSG5.HA) VKQEPASPKKKENALLRYLLDKDDTKDIGLPEITPKLERLDSKTDPASNTKLIAMKTVKEEVSFEPSDQPGSELDNLEEILDDLQNSQLPQLFPDTRPGAPTGSVDKQAIINDLMQLTADSSPVPPAGAQKAALRMSQSTFNNPRPGQLGRLLPNQNLPLDITLQSPTGAGPFPPIRNSSPYSVIPQPGMMGNQGMLGSQGNLGNNSTGMIGSSTSRPSMPSGEWAPQSPAVRVTCAATTGAMNRPVQGGMIRNPTASIPMRANSQPGQRQMLQSQVMNIGPSELEMNMGGPQYNQQQAPPNQTAPWPESILPIDQASFASQNRQPFGSSPDDLLCPHPAAESPSDEGALLDQLYLALRNFDGLEEIDRALGIPELVSQSQAVDAEQFSSQE		binding result (GST-CARM1): no binding
